Laboratory results taken from patent US20260098064A1 (PENN STATE RESEARCH FOUNDATION, published 2026).
Residue numbers refer to the chain shown, from its start. Numbers in names are those of the source.

What was measured:
[1] = size exclusion chromatography; 20 µM LanM_012 with 4.0 equiv. Dy^III; details: 20 µM protein, 5% glycerol, pH 7.0
[2] = size exclusion chromatography; 20 µM LanM_012 with 4.0 equiv. La^III; details: 20 µM protein, 5% glycerol, pH 7.0
[3] = target: the molecule itself; test: S75 gel filtration during purification, no Ca(II) included; self-association
Protocol: The procedures used for expression in E. coli and purification of LanM_013 were identical to those used for Mex-LanM, except that no Ca(II) was included in the gel filtration step. […] The elution volume of the protein from the S75 column was consistent with a monomer. The purification yielded 80 mg LanM_013 from 2 L culture (40 mg/L).

[4] = target: the molecule itself; test: ITC dilution of 300 µM protein, dimer dissociation model (Kdimer); apo Hans-LanM; 30 mM MOPS, 100 mM KCl, pH 7.0, 30 C
Protocol: (§1) Isothermal titration calorimetry. The dissociation constants for the dimers of apo, La^III-bound, and Dy^III-bound Hans-LanM were determined by dilutive additions of a concentrated protein stock, followed using ITC on a TA Instruments Low-volume Auto Affinity ITC. The syringe contained 300 μM protein (apo or 2 equiv. Dy^III bound) or 150 μM or 540 μM (2 equiv. La^III bound), and the cell contained 185 μL of a matched buffer (30 mM MOPS, 100 mM KCl, pH 7.0). Titrations were carried out at 30° C. Titrations consisted of a first 0.2 μL injection followed by 17×2 μL injections, unless otherwise noted, with stirring at 125 rpm and 180 s equilibration time between injections. The heats were fitted using NanoAnalyze using the “Dimer Dissociation” model, yielding the dimer dissociation constant (Kdimer), enthalpy of dissociation (ΔH), and entropy of dissociation (ΔS).

[5] = target: the molecule itself; test: ITC, dimer dissociation model, 5% glycerol; Dy-bound wt Hans-LanM; unit not printed (Table 18: cal/mol/K)
Protocol: as §1
(§2) Table 21. Thermodynamics parameters for WT and R100K Hans-LanM, obtained by fitting ITC thermograms to the dimer dissociation model. These experiments were carried out similarly to those shown in Table 18, except that 5% glycerol was present in the buffer.

[6] = analytical SEC (Superdex S75); Hans-LanM (590 µM) with 3.0 equiv. La^III
[7] = target: the molecule itself; test: ITC, dimer dissociation model, buffer with 5% glycerol; apo wt Hans-LanM
Protocol: as §1, §2

[8] = target: the molecule itself; test: ITC, dimer dissociation model; apo Hans-LanM
Protocol: as §1

[9] = analytical SEC (Superdex S75); Hans-LanM with 3.0 equiv. Gd^III
[10] = target: the molecule itself; test: La^III-bound Hans-LanM; no monomerization seen by ITC; upper limit estimated from SEC-MALS peak concentration (FIG. 12)
Protocol: (§3) To provide further support for preferential dimerization in the presence of physiologically relevant LREs, RE complexes of Hans-LanM were analyzed using multi-angle light scattering (MALS) (FIG. 2a, FIG. 9). The La^III, Nd^III, and Gd^III complexes have MWs of 22-25 kDa, indicative of dimers, but MWs decrease starting with Tb^III and continue to Dy^III and Ho^III, at ˜15 kDa (Table 17), in agreement with the SEC data. Ca^II-bound Hans-LanM also indicated a MW of 14.7 kDa. […] The Kd for dimerization (Kdimer) of apo-, La^III-bound, and Dy^III-bound Hans-LanM was determined by isothermal titration calorimetry (ITC) (FIG. 10-12, Table 18). […] Thus, La^III favors Hans-LanM's dimerization by >100-fold over Dy^III.
(§4) Isothermal titration calorimetry. The dissociation constants for the dimers of apo, La^III-bound, and Dy^III-bound Hans-LanM were determined by dilutive additions of a concentrated protein stock, followed using ITC on a TA Instruments Low-volume Auto Affinity ITC. The syringe contained 300 μM protein (apo or 2 equiv. Dy^III bound) or 150 μM or 540 μM (2 equiv. La^III bound), and the cell contained 185 μL of a matched buffer (30 mM MOPS, 100 mM KCl, pH 7.0). Titrations were carried out at 30° C. Titrations consisted of a first 0.2 μL injection followed by 17×2 μL injections, unless otherwise noted, with stirring at 125 rpm and 180 s equilibration time between injections. […]

[11] = target: the molecule itself; test: ITC dilution of 300 µM protein, dimer dissociation model (Kdimer); Hans-LanM with 2 equiv. Dy^III; 30 mM MOPS, 100 mM KCl, pH 7.0, 30 C
Protocol: as §1

[12] = target: the molecule itself; test: ITC, dimer dissociation model, 5% glycerol; apo wt Hans-LanM; unit not printed (Table 18: cal/mol/K)
Protocol: as §1, §2

[13] = target: the molecule itself; test: ITC, dimer dissociation model, 5% glycerol; Dy-bound wt Hans-LanM; unit not printed (Table 18: kcal/mol)
Protocol: as §1, §2

[14] = target: the molecule itself; test: ITC, dimer dissociation model, 5% glycerol; apo wt Hans-LanM; unit not printed (Table 18: kcal/mol)
Protocol: as §1, §2

[15] = target: the molecule itself; test: ITC and SEC-MALS estimate; La^III-bound against Dy^III-bound Hans-LanM
Protocol: as §3, §4

[16] = analytical SEC (Superdex S75); Hans-LanM with 3.0 equiv. Ho^III
[17] = analytical SEC (Superdex S75); Hans-LanM with 3.0 equiv. Eu^III
[18] = analytical SEC (Superdex S75); Hans-LanM with 3.0 equiv. Nd^III
[19] = target: the molecule itself; test: ITC, dimer dissociation model, buffer with 5% glycerol; Dy-bound wt Hans-LanM
Protocol: as §1, §2

[20] = target: the molecule itself; test: ITC, dimer dissociation model; Dy^III-bound Hans-LanM
Protocol: as §1

[21] = analytical SEC (Superdex S75); Hans-LanM with 3.0 equiv. Tb^III
[22] = analytical SEC (Superdex S75); Hans-LanM with 3.0 equiv. Dy^III
[23] = analytical SEC (Superdex S75); Hans-LanM with 3.0 equiv. Sm^III
[24] = target: the molecule itself; test: ITC, dimer dissociation model, 5% glycerol; apo R100K-Hans-LanM; unit not printed (Table 18: kcal/mol)
Protocol: as §1, §2

[25] = target: the molecule itself; test: ITC, dimer dissociation model, 5% glycerol; Dy-bound R100K-Hans-LanM; unit not printed (Table 18: kcal/mol); ITC dimer dissociation model, 5% glycerol; Dy-bound R100K
Protocol: as §1, §2

[26] = target: the molecule itself; test: ITC, dimer dissociation model, buffer with 5% glycerol; apo R100K-Hans-LanM; ITC dimer dissociation model, 5% glycerol; apo R100K
Protocol: as §1, §2

[27] = target: the molecule itself; test: ITC, dimer dissociation model, 5% glycerol; Dy-bound R100K-Hans-LanM; unit not printed (Table 18: cal/mol/K)
Protocol: as §1, §2

[28] = target: the molecule itself; test: ITC, dimer dissociation model, 5% glycerol; Dy-bound R100K-Hans-LanM; unit not printed (Table 18: kcal/mol)
Protocol: as §1, §2

[29] = target: the molecule itself; test: ITC, dimer dissociation model, buffer with 5% glycerol; La-bound R100K-Hans-LanM; ITC dimer dissociation model, 5% glycerol; La-bound R100K
Protocol: as §1, §2

[30] = target: the molecule itself; test: ITC, dimer dissociation model, 5% glycerol; La-bound R100K-Hans-LanM; unit not printed (Table 18: cal/mol/K)
Protocol: as §1, §2

[31] = target: the molecule itself; test: ITC, dimer dissociation model, 5% glycerol; apo R100K-Hans-LanM; unit not printed (Table 18: cal/mol/K)
Protocol: as §1, §2

[32] = target: the molecule itself; test: ITC, dimer dissociation model, buffer with 5% glycerol; Dy-bound R100K-Hans-LanM; ITC dimer dissociation model, 5% glycerol; Dy-bound R100K
Protocol: as §1, §2

[33] = target: the molecule itself; test: ITC, dimer dissociation model, 5% glycerol; apo R100K-Hans-LanM; unit not printed (Table 18: kcal/mol); ITC dimer dissociation model, 5% glycerol; apo R100K
Protocol: as §1, §2

[34] = target: the molecule itself; test: ITC, dimer dissociation model, 5% glycerol; La-bound R100K-Hans-LanM; unit not printed (Table 18: kcal/mol); ITC dimer dissociation model, 5% glycerol; La-bound R100K
Protocol: as §1, §2

[35] = target: the molecule itself; test: ITC, dimer dissociation model, 5% glycerol; La-bound R100K-Hans-LanM; unit not printed (Table 18: kcal/mol)
Protocol: as §1, §2

[36] = target: the molecule itself; test: SEC-MALS of apo, Ca^II, La^III, Nd^III and Dy^III Mex-LanM (Table 17); self-association
Protocol: In-line size-exclusion chromatography and multi-angle light scattering (SEC-MALS). SEC-MALS experiments were conducted using an Agilent 1260 Infinity II HPLC system equipped with an autosampler and fraction collector, and the Wyatt SEC hydrophilic column had 5 μm silica beads, a pore size of 100 Å, and dimensions of 7.8×300 mm. Wyatt Technology DAWN MALS and Wyatt Optilab Refractive Index (RI) detectors were used for analyzing the molar mass of peaks that eluted from the column. The SEC-MALS system was equilibrated for 5 h with Buffer B. The system was calibrated with bovine serum albumin (BSA, monomer MW: 66 kDa) in the same buffer and normalization and alignment of the MALS and RI detectors were carried out. A volume of 15 μL of each sample was injected at a flow rate of 0.8 mL/min with a chromatogram run time of 25 min. Data were analyzed using the ASTRA software (Wyatt). When SAXS analysis was desired, a second run was performed with 150 μL protein (˜4 mg/mL) injected, and 200 μL fractions of the main peak were collected. BioSAXS data were subsequently collected in triplicate.
Table 17. Characterization of Hans- and Mex-LanM metal complexes using SEC-MALS. The concentrations of the protein samples loaded to the column were: 1.2-1.5 mg/mL for apo- and RE-bound Hans-LanM, 3 mg/mL for Ca^II-bound Hans-LanM, and 3 mg/mL for Mex-LanM. […]

B1: LanM_012 (Xanthobacter flavus LanM, with signal peptide removed) (protein)
chain: MLTGKEFLRKYNKDKDSTVEIVEAIDLGTKVFKAINPDKDKTLEAAETKGRLSDEDWAQFNKDGDKTLELDEWLIIVRKRFNDADANKDGKLTEAELDAPAGQQLILLIAK
apparent molecular weight (SEC) [1]: an apparent molecular weight of ˜29.1 kDa | apparent molecular weight (SEC) [2]: an apparent molecular weight of ˜29.1 kDa

B2: LanM_013 (Methyloligella sp. GL2 LanM, expressed construct; signal peptide removed and N-terminal Met added) (other)
chain: MGKAADAIQALDPDKDGTIDLNEAKAGAKAVFEKINPDGDGTLEVKELKGRLTKKELDAADPDNDGTLDMQEYEAVVTKQFELANPDNDGTVDEKELKTKEGKKLLKLIY
notes: Monomer
binding result [3]: no binding

B3: Hans-LanM (lanmodulin from Hansschlegelia quercus, wild type, lacking signal peptide, as expressed in this study) (other)
chain: ASGADALKALNKDNDDSLEIAEVIHAGATTFTAINPDGDTTLESGETKGRLTEKDWARANKDGDQTLEMDEWLKILRTRFKRADANKDGKLTAAELDSKAGQGVLVMIMK
notes: also called LanM_002; wt
Kd [4]: 117 µM | ΔS of dimer dissociation [5]: -36 cal/mol/K | Apparent MW (SEC, kDa) [6]: 27.8 kDa | Kd [7]: 100 µM | ΔG of dimer dissociation [8]: 5.5 kcal/mol | ΔH of dimer dissociation [8]: 25.4 kcal/mol | ΔS of dimer dissociation [8]: 66 cal/mol/K | Apparent MW (SEC, kDa) [9]: 23 kDa | Kd [10]: < 0.4 µM | Kd [11]: 60 µM | ΔS of dimer dissociation [12]: 61 cal/mol/K | ΔG of dimer dissociation [13]: 6.1 kcal/mol | ΔH of dimer dissociation [13]: -5 kcal/mol | ΔG of dimer dissociation [14]: 6.3 kcal/mol | ΔH of dimer dissociation [14]: 24 kcal/mol | fold enhancement of dimerization, La^III versus Dy^III [15]: 100 fold | Apparent MW (SEC, kDa) [16]: 17.9 kDa | Apparent MW (SEC, kDa) [17]: 25.5 kDa | Apparent MW (SEC, kDa) [18]: 27.8 kDa | Kd [19]: 40 µM | ΔG of dimer dissociation [20]: 5.9 kcal/mol | ΔH of dimer dissociation [20]: -5.3 kcal/mol | ΔS of dimer dissociation [20]: -37 cal/mol/K | Apparent MW (SEC, kDa) [21]: 21.3 kDa | Apparent MW (SEC, kDa) [22]: 20 kDa | Apparent MW (SEC, kDa) [23]: 26.1 kDa

B4: R100K-Hans-LanM (other)
chain: B3 chain with R77K
notes: Monomer; also called Hans-LanM(R100K); R100K variant
ΔG of dimer dissociation [24]: 6 kcal/mol | ΔH of dimer dissociation [25]: -16 kcal/mol | Kd [26]: 82 µM | ΔS of dimer dissociation [27]: -73 cal/mol/K | ΔG of dimer dissociation [28]: 5.9 kcal/mol | Kd [29]: 14 µM | ΔS of dimer dissociation [30]: -84 cal/mol/K | ΔS of dimer dissociation [31]: 37 cal/mol/K | Kd [32]: 54 µM | ΔH of dimer dissociation [33]: 16 kcal/mol | ΔH of dimer dissociation [34]: -19 kcal/mol | ΔG of dimer dissociation [35]: 7 kcal/mol

B5: Mex-LanM (lanmodulin from Methylorubrum extorquens AM1) (other)
chain: APTTTTKVDIAAFDPDKDGTIDLKEALAAGSAAFDKLDPDKDGTLDAKELKGRVSEADLKKLDPDNDGTLDKKEYLAAVEAQFKAANPDNDGTIDARELASPAGSALVNLIR
notes: also called LanM_001; M. extorquens LanM
binding result [36]: no binding (tested: 3 mg/mL loaded)
